Test results published in patent US20250327097A1, “ORGANISMS PRODUCING LESS CROTONIC ACID” (Global Bioenergies, priority 2021, published 2025).

Each molecule was assayed on 3-methylcrotonic acid.
Type: biochemical, Yersinia frederiksenii
Design: key: “+” representing a low increase in activity; “++++” representing a high increase in activity

| Molecule | Activity relative to WT |
| --- | --- |
| I283T-N285P-N287T-Q290E-S322T-N388M-K394R-C430A-L432F-L434W-S436N-dG462-Y471F (protein) MFLKSLREQINLLKRQGDLRIINRPVDSYLEAAAIIRRSTETKAPVPLMTNIKGYPGCSIVGGLAALSSNPEYPLSRVAMSLGLSTTASAQSIVQYLIDGLKKTPYLPVEIDSNSAPCKQNILRGEDASLAHFPIPQVHQHDGNRYVNTWGVFIVESPDGQWCNWSIQRVQYLNDRQMIALVFPSQHISDIWEEWVKIGKPMPYALVQGCEPIVPYIAGLPLLERNVNEAEYIGALYGKGIEVVKCETHDLRVPASSEVVIEGYFAITREGVEGPFGEFAGYTPPETSLEPILSITAISWQDDPIWPVVAEGKPVDEYHTCTGIGDAAAIQNVLLTANLPVSFVWVPLYSACHLMIVSINRHWRQTHPDLTSEQLTKKVGDVIHQTRMSIKLPRIVVLDDDVDPADTESLLWALATRIHPERKRYFYESAIFPWLNCYSEEERHNRKGKRVIIDALLPENHGAISSFDYAFPDDIKQRVLMHWETDFSHD | ++++ |
| L222V-I283T-N285P-N287T-Q290E-S322T-N388M-K394R-C430A-L432F-L434W-S436N-dG462 (protein) MFLKSLREQINLLKRQGDLRIINRPVDSYLEAAAIIRRSTETKAPVPLMTNIKGYPGCSIVGGLAALSSNPEYPLSRVAMSLGLSTTASAQSIVQYLIDGLKKTPYLPVEIDSNSAPCKQNILRGEDASLAHFPIPQVHQHDGNRYVNTWGVFIVESPDGQWCNWSIQRVQYLNDRQMIALVFPSQHISDIWEEWVKIGKPMPYALVQGCEPIVPYIAGLPVLERNVNEAEYIGALYGKGIEVVKCETHDLRVPASSEVVIEGYFAITREGVEGPFGEFAGYTPPETSLEPILSITAISWQDDPIWPVVAEGKPVDEYHTCTGIGDAAAIQNVLLTANLPVSFVWVPLYSACHLMIVSINRHWRQTHPDLTSEQLTKKVGDVIHQTRMSIKLPRIVVLDDDVDPADTESLLWALATRIHPERKRYFYESAIFPWLNCYSEEERHNRKGKRVIIDALLPENHGAISSFDYAYPDDIKQRVLMHWETDFSHD | ++++ |
| N287T-N388M-K394R-C430N-L432F-L434W-S436N (protein) MFLKSLREQINLLKRQGDLRIINRPVDSYLEAAAIIRRSTETKAPVPLMTNIKGYPGCSIVGGLAALSSNPEYPLSRVAMSLGLSTTASAQSIVQYLIDGLKKTPYLPVEIDSNSAPCKQNILRGEDASLAHFPIPQVHQHDGNRYVNTWGVFIVESPDGQWCNWSIQRVQYLNDRQMIALVFPSQHISDIWEEWVKIGKPMPYALVQGCEPIVPYIAGLPLLERNVNEAEYIGALYGKGIEVVKCETHDLRVPASSEVVIEGYFAITREGVEGPFGEFAGYIPNETSLQPILSITAISWQDDPIWPVVAEGKPVDEYHTCSGIGDAAAIQNVLLTANLPVSFVWVPLYSACHLMIVSINRHWRQTHPDLTSEQLTKKVGDVIHQTRMSIKLPRIVVLDDDVDPADTESLLWALATRIHPERKRYFYESNIFPWLNCYSEEERHNRKGKRVIIDALLPENHGAISSFDYAYPDDIKQRVLMHWETDFSHD | + |
| I35V-Q140L-I283T-N285P-N287T-Q290E-S322T-N388M-K394R-C430A-L432F-L434W-S436N-dG462 (protein) MFLKSLREQINLLKRQGDLRIINRPVDSYLEAAAVIRRSTETKAPVPLMTNIKGYPGCSIVGGLAALSSNPEYPLSRVAMSLGLSTTASAQSIVQYLIDGLKKTPYLPVEIDSNSAPCKQNILRGEDASLAHFPIPQVHLHDGNRYVNTWGVFIVESPDGQWCNWSIQRVQYLNDRQMIALVFPSQHISDIWEEWVKIGKPMPYALVQGCEPIVPYIAGLPLLERNVNEAEYIGALYGKGIEVVKCETHDLRVPASSEVVIEGYFAITREGVEGPFGEFAGYTPPETSLEPILSITAISWQDDPIWPVVAEGKPVDEYHTCTGIGDAAAIQNVLLTANLPVSFVWVPLYSACHLMIVSINRHWRQTHPDLTSEQLTKKVGDVIHQTRMSIKLPRIVVLDDDVDPADTESLLWALATRIHPERKRYFYESAIFPWLNCYSEEERHNRKGKRVIIDALLPENHGAISSFDYAYPDDIKQRVLMHWETDFSHD | ++++ |
| V227L-I283T-N285P-N287T-Q290E-S322T-N388M-K394R-C430A-L432F-L434W-S436N-dG462 (protein) MFLKSLREQINLLKRQGDLRIINRPVDSYLEAAAIIRRSTETKAPVPLMTNIKGYPGCSIVGGLAALSSNPEYPLSRVAMSLGLSTTASAQSIVQYLIDGLKKTPYLPVEIDSNSAPCKQNILRGEDASLAHFPIPQVHQHDGNRYVNTWGVFIVESPDGQWCNWSIQRVQYLNDRQMIALVFPSQHISDIWEEWVKIGKPMPYALVQGCEPIVPYIAGLPLLERNLNEAEYIGALYGKGIEVVKCETHDLRVPASSEVVIEGYFAITREGVEGPFGEFAGYTPPETSLEPILSITAISWQDDPIWPVVAEGKPVDEYHTCTGIGDAAAIQNVLLTANLPVSFVWVPLYSACHLMIVSINRHWRQTHPDLTSEQLTKKVGDVIHQTRMSIKLPRIVVLDDDVDPADTESLLWALATRIHPERKRYFYESAIFPWLNCYSEEERHNRKGKRVIIDALLPENHGAISSFDYAYPDDIKQRVLMHWETDFSHD | ++++ |
| E224P-I283T-N285P-N287T-Q290E-S322T-N388M-K394R-C430A-L432F-L434W-S436N-dG462 (protein) MFLKSLREQINLLKRQGDLRIINRPVDSYLEAAAIIRRSTETKAPVPLMTNIKGYPGCSIVGGLAALSSNPEYPLSRVAMSLGLSTTASAQSIVQYLIDGLKKTPYLPVEIDSNSAPCKQNILRGEDASLAHFPIPQVHQHDGNRYVNTWGVFIVESPDGQWCNWSIQRVQYLNDRQMIALVFPSQHISDIWEEWVKIGKPMPYALVQGCEPIVPYIAGLPLLPRNVNEAEYIGALYGKGIEVVKCETHDLRVPASSEVVIEGYFAITREGVEGPFGEFAGYTPPETSLEPILSITAISWQDDPIWPVVAEGKPVDEYHTCTGIGDAAAIQNVLLTANLPVSFVWVPLYSACHLMIVSINRHWRQTHPDLTSEQLTKKVGDVIHQTRMSIKLPRIVVLDDDVDPADTESLLWALATRIHPERKRYFYESAIFPWLNCYSEEERHNRKGKRVIIDALLPENHGAISSFDYAYPDDIKQRVLMHWETDFSHD | ++++ |
| E224Q-I283T-N285P-N287T-Q290E-S322T-N388M-K394R-C430A-L432F-L434W-S436N-dG462 (protein) MFLKSLREQINLLKRQGDLRIINRPVDSYLEAAAIIRRSTETKAPVPLMTNIKGYPGCSIVGGLAALSSNPEYPLSRVAMSLGLSTTASAQSIVQYLIDGLKKTPYLPVEIDSNSAPCKQNILRGEDASLAHFPIPQVHQHDGNRYVNTWGVFIVESPDGQWCNWSIQRVQYLNDRQMIALVFPSQHISDIWEEWVKIGKPMPYALVQGCEPIVPYIAGLPLLQRNVNEAEYIGALYGKGIEVVKCETHDLRVPASSEVVIEGYFAITREGVEGPFGEFAGYTPPETSLEPILSITAISWQDDPIWPVVAEGKPVDEYHTCTGIGDAAAIQNVLLTANLPVSFVWVPLYSACHLMIVSINRHWRQTHPDLTSEQLTKKVGDVIHQTRMSIKLPRIVVLDDDVDPADTESLLWALATRIHPERKRYFYESAIFPWLNCYSEEERHNRKGKRVIIDALLPENHGAISSFDYAYPDDIKQRVLMHWETDFSHD | ++++ |
